Values quoted from earlier work in publication PMC9331257.
Blank lines part the entries; values can stand above or below the substance they belong to.

Tests used:
PAC1R (Homo sapiens) [1] = target: PAC1R (Homo sapiens) (UniProt P41586); assay: radioligand binding
[2] = target: PACAP type II receptor (Homo sapiens) (UniProt P32241); assay: radioligand binding
PAC1R (Homo sapiens) [3] = target: PAC1R (Homo sapiens) (UniProt P41586); assay: [125I]Ac-His1-PACAP27 displacement
VPAC2R (Homo sapiens) = VPAC2R (Homo sapiens) (UniProt P41587); assay: [125I]Ac-His1-PACAP27 displacement
UniProt P41587, sequence (P41587 24-438): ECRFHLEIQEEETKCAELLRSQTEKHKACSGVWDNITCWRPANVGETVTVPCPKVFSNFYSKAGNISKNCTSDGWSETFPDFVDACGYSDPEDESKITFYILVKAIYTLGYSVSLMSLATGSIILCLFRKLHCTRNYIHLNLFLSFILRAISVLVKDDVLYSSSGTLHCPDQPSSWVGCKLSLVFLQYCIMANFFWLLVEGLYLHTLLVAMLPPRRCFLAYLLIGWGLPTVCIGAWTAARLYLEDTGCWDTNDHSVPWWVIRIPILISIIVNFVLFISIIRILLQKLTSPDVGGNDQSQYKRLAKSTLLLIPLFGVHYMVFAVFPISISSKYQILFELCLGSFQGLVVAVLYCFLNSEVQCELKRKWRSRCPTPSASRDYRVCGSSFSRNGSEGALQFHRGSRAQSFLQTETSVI

VPAC1R (Homo sapiens) = VPAC1R (Homo sapiens) (UniProt P32241); assay: [125I]VIP displacement
PAC1R (Homo sapiens) [4] = target: PAC1R (Homo sapiens) (UniProt P41586); assay: radioligand
[5] = target: PACAP type II receptor (Homo sapiens) (UniProt P32241); assay: radioligand

UniProt P41586, sequence (P41586 21-468): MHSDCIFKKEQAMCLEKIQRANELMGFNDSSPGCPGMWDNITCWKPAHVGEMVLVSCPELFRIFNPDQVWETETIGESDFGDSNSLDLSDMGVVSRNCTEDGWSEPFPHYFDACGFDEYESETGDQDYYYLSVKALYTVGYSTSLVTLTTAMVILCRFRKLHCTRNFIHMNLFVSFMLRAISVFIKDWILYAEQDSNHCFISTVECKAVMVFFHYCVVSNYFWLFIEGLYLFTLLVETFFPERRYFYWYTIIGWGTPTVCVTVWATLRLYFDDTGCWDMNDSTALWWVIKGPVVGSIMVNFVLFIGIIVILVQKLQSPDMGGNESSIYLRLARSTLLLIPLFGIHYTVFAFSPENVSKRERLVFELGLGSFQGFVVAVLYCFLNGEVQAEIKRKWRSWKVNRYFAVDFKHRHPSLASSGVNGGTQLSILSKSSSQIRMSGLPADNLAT
VIP, sequence (P01282 125-152): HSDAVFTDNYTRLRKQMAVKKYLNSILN
PACAP, sequence (P18509 82-129): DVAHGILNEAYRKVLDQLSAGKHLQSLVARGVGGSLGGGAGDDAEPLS

Kd (PAC1R (Homo sapiens) [1]): 0.5 nM | Kd [2]: 0.5 nM
Substance: PACAP (from UniProt P18509)

Ki (PAC1R (Homo sapiens) [3]): 30 nM | Ki (VPAC2R (Homo sapiens)): 40 nM | Ki (VPAC1R (Homo sapiens)): 600 nM
Substance: PACAP(6-38) 6-38 (from UniProt P18509)

Kd (PAC1R (Homo sapiens) [4]): > 500 nM | Kd [5]: 0.5 nM
Substance: VIP (from UniProt P01282)
